Data: PMC4115230, “Lipid–Protein Nanodiscs Offer New Perspectives for Structural and Functional Studies of Water-Soluble Membrane-Active Peptides” (Acta Naturae, 2014)

How the values were obtained:
[1] = tested on: LPN/POPC; assay: NMR titration binding isotherm with LPN/POPC nanodiscs; details: POPC, 1D 1H-NMR titration, 10 mM Tris-Ac, pH 7.0
Protocol: (§1) The recombinant 44–243 fragment of the human apolipoprotein A1 with a N-terminal sequence of six His residues was used as an MSP protein. The purified MSP protein, obtained as described in [20], was mixed at a molar ratio of 1 : 75 with lipids in the presence of a detergent, sodium cholate (2 : 1 cholate/lipids molar ratio), and the mixture was incubated at 4 °C for 3 h. When using saturated lipids (DLPC, DLPG), the reaction temperature was kept not lower than 25 °C. Spontaneous LPN assembly was initiated by detergent sorption to the Bio-Beads™ resin (Bio-Rad, USA) for 1.5 h. Purification of the nanodiscs was performed on a Ni^2+ Sepharose 6 Fast Flow resin (GE Healthcare, USA) equilibrated with buffer A (20 mM Tris-HCl, 0.5 M NaCl, 1 mM NaN3, pH 8.0). After loading the reaction mixture, the resin was washed with a fivefold volume of buffer A. LPNs were eluted with buffer A containing 100 mM imidazole. The MSP concentration was determined spectrophotometrically by absorbance at λ = 280 nm. The LPN concentration was determined by assuming that each nanodisc contained two MSP molecules.
(§2) NMR spectra were acquired at 40–45 °C on AVANCE -700 and AVANCE -III-800 spectrometers (Bruker, Germany) equipped with cryogenically cooled triple-resonance probes at the proton resonance frequencies of 700 and 800 MHz, respectively. […]

[2] = tested on: LPN/POPC/DOPS (4 : 1); assay: Paramagnetic relaxation enhancement from 5-DSA in 2D 1H,15N-TROSY; format: binding; details: 5-DSA 10, 30 and 75 μM; 45 μM 2H,15N-NT II, 75 μM LPN/POPC/DOPS (4 : 1), pH 7.0
Protocol: (§3) The interaction of NT II with LPN was studied using a sample containing 45 μM ^2H,^15N-NT II, and 75 μM LPN/POPC/DOPS (4 : 1) (10 mM Tris-Ac, pH 7.0). To identify the peptide HN-groups making contacts with the nanodisc surface, the ^1H signal of choline group of the POPC lipid ((CH3)3N^+-, chemical shift is 3.2 ppm) was saturated at a frequency of 125 Hz for 0.1, 0.3, 0.5, 0.8, 1.0, 1.5, and 3.0 s using a relaxation delay of 3 s. […] To identify the peptide HN-groups making contacts with the hydrophobic region of the nanodisc membrane, the paramagnetic probe of 5-doxyl-stearic acid (5-DSA) was used. 5-DSA dissolved in a small amount of methanol was added to the sample containing NT II/LPN complexes to a final concentration of 10, 30, and 75 μM. […] The rates of the cross-correlation process between the dipole-dipole relaxation and relaxation arising from the chemical shift anisotropy of the ^15N nucleus (ηXY) were measured for the complexes of NT II with LPN/POPC/DOPS at 40 °C on an AVANCE -III-800 spectrometer, using amplitude modulated 2D ^1H,^15NTR OSY experiments. The rotational correlation time (τR) for the peptide HN-groups was calculated from the measured ηXY values.

[3] = tested on: LPN/POPC/DOPG (3 : 1); assay: NMR titration binding isotherm with LPN/POPC/DOPG (3 : 1) nanodiscs; details: 10 mM Tris-Ac; for binding to LPNs: POPC/DOPG, 3 : 1, 1D 1H-NMR titration, pH 7.0
Protocol: as §1
(§4) NMR spectra were acquired at 40–45 °C on AVANCE -700 and AVANCE -III-800 spectrometers (Bruker, Germany) equipped with cryogenically cooled triple-resonance probes at the proton resonance frequencies of 700 and 800 MHz, respectively.
(§5) To measure the isotherms of the toxins binding to LPNs and MSP molecules, the VSTx1 and NT II samples ([…], 10 mM Tris-Ac, pH 7.0) were titrated with solutions of nanodiscs (70 μM) of various lipid compositions or with a MSP solution (0.7 mM). The 1D 1H-NMR spectrum was acquired at each point. A data analysis was performed assuming that the intensity of the observed NMR signals of a peptide is proportional to its equilibrium concentration in solution ([P]free). The binding curves were fitted either to the partition equilibrium equation (1) or to the Langmuir isotherm equation (2), taking into account the dilution of the initial samples upon titration:
(§6) where [LPN/lipid] is the LPN concentration (assuming that one nanodisc contains two MSP molecules) or the lipid concentration (assuming that one nanodisc contains 150 lipid molecules), [P]boundis the concentration of a peptide bound to LPN ([P]0 = [P]free+ [P]bound), Kpis the partition coefficient, n is the number of binding sites for a peptide on the nanodisc surface, and Knis the affinity constant of the peptide to the binding site on the nanodisc surface.

[4] = tested on: LPN/POPC/DOPS (4 : 1); assay: Topology of NT II on nanodisc membrane (combined NOE and PRE data); format: binding; details: fast exchange on the NMR scale
Protocol: as §3

[5] = tested on: muscle-type nicotinic acetylcholine receptor; details: blocks ligand binding sites with its central loop; ref [36]; cited from earlier work
From the text: Neurotoxin II (NT II) is a cationic non-hydrophobic peptide which is stabilized by four disulfide bonds and has the so-called “three-loop” β-structure fold characteristic for snake toxins (Fig. 1). […] It blocks, with its central loop, the ligand binding sites located on the receptor extracellular domain [36]. Unlike VSTx1, NT II has no explicit membrane activity. At the same time, the ^1H,^15N-, and ^31P-NMR spectroscopy investigation of NT II in the environment of DOPC/ DOPS/cholesterol (3 : 1 : 1) ...

[6] = tested on: LPN/POPC/DOPS (4 : 1); assay: 15N cross-correlation relaxation rates (ηXY) of NT II in complex with LPN; format: physicochemical
Protocol: as §4, §3

[7] = tested on: LPN/POPC/DOPS (4 : 1); assay: NMR titration binding isotherm with LPN/POPC/DOPS (4 : 1) nanodiscs; details: for binding to LPNs: POPC/DOPS, 4 : 1, 1D 1H-NMR titration, pH 7.0
Protocol: as §1, §4, §5, §6

[8] = tested on: MSP (44-243 fragment of human apolipoprotein A1); assay: NMR titration binding isotherm with MSP; details: MSP without lipids; 1D 1H-NMR titration, 10 mM Tris-Ac, pH 7.0
Protocol: as §1, §2

[9] = tested on: LPN/POPC/DOPS (4 : 1); assay: Saturation of POPC choline signal (NOE magnetization transfer) in 2D 1H,15N-TROSY; format: binding; details: 45 μM 2H,15N-NT II, 75 μM LPN/POPC/DOPS (4 : 1), 10 mM Tris-Ac, pH 7.0
Protocol: as §3

[10] = tested on: LPNs; assay: Gel filtration analysis of LPNs after peptide addition (nanodisc integrity, particle size); format: physicochemical; details: Superdex-200, 10 mM Tris-HCl, 0.1 M NaCl
Protocol: was carried out on a Superdex-200 resin using a Tricorn 5/200 column (GE Healthcare, Sweden) in buffer (10 mM Tris-HCl, 0.1 M NaCl, 1 mM EDTA, 1 mM NaN3, pH 7.4). Thyroglobulin (669 kDa, Stokes radius RH = 8.5 nm), ferritin (440 kDa, RH = 6.1 nm), catalase (232 kDa, RH = 5.22 nm), aldolase (158 kDa, RH = 4.81 nm) BSA (67 kDa, RH = 3.55 nm), and ovalbumin (43 kDa, RH = 3.05 nm) were used as calibration proteins. The flow rate through the column was 0.3 ml/min. Detection was performed at 280 nm. The particle size was determined from the elution volume vs the lgRH calibration curve. All the particle size (diameter) values provided below correspond to twice RH values. ;

B1: neurotoxin II (peptide)
chain: LECHNQQSSQPPTTKTCSGETNCYKKWWSDHRGTIIERGCGCPKVKPGVNLNCCRTDRCNN
modifications: not fully specified; ends and bridges not checked; also: 2H,15N-labeled
binding to LPNs [1]: lack of detectable binding | binding to LPNs ([1]; listed as NTII): does not bind | residues with maximum attenuation of HN-signal intensities (PRE) [2]: Thr21 residue of the toxin “head” and for residues of the third and second loops | binding to LPNs [3]: low affinity | binding to LPNs ([3]; listed as NTII): comparatively low affinity | Kp(LPN, MSP×2), partition coefficient ([3]; partition equilibrium (eq. 1), LPN concentration as non-aqueous phase, pH 7.0, 40–45 °C, no added salt): 0.32 ± 0.01 ×10^6·M^-1 | Kp(Lipids), partition coefficient ([3]; partition equilibrium (eq. 1), lipid concentration as non-aqueous phase (150 lipids per nanodisc), pH 7.0, 40–45 °C, no added salt): 2.13 ± 0.07 ×10^3·M^-1 | orientations on the nanodisc surface [4]: several (at least two) orientations | orientations on the nanodisc surface ([4]; listed as NTII): several orientations | inhibition of muscle-type nicotinic acetylcholine receptor [5]: highly specific inhibitor | ηXY, cross-correlation rates of 15N nuclear relaxation, range ([6]; 2H,15N-NT II in complex with LPN/POPC/DOPS, 800 MHz, 40 °C): 2.5 to 40 Hz | diameter of globular particle corresponding to mean τR ([6]; calculated from mean τR): ~ 5.4 nm | mass of globular particle corresponding to mean τR ([6]; calculated from mean τR): ~ 34 kDa | rotational correlation time τR, range ([6]; calculated from ηXY, NT II in complex with LPN/POPC/DOPS, 40 °C): 2 to 31 ns | rotational correlation time τR, mean ([6]; calculated from ηXY, mean, NT II in complex with LPN/POPC/DOPS, 40 °C): ~ 12.5 ns | ηXY, cross-correlation rates of 15N nuclear relaxation, mean ([6]; mean value, 2H,15N-NT II in complex with LPN/POPC/DOPS, 800 MHz, 40 °C): 16.3 ± 9.2 Hz | selectivity for membranes containing different anionic lipids (phosphatidylserine and phosphatidylglycerol) ([7]; LPN/POPC/DOPS (4 : 1) compared with LPN/POPC/DOPG (3 : 1)): lack of significant NT II selectivity | binding to LPNs ([7]; 10 mM Tris-Ac): low affinity | binding to LPNs ([7]; 10 mM Tris-Ac, listed as NTII): comparatively low affinity | Kp(LPN, MSP×2), partition coefficient ([7]; partition equilibrium (eq. 1), LPN concentration as non-aqueous phase, 10 mM Tris-Ac, pH 7.0, 40–45 °C, no added salt): 0.16 ± 0.01 ×10^6·M^-1 | Kp(Lipids), partition coefficient ([7]; partition equilibrium (eq. 1), lipid concentration as non-aqueous phase (150 lipids per nanodisc), 10 mM Tris-Ac, pH 7.0, 40–45 °C, no added salt): 1.07±0.07 ×10^3·M^-1 | interaction with MSP [8]: absence of nonspecific toxin interactions with the MSP protein | toxin regions with drop of cross-peak intensity on POPC choline saturation [9]: 1) in the toxin “head”, near the putative binding site for phosphatidylserine, and 2) in the central (second) loop, at the level of Trp27, Trp28, and Ile35 residues | nanodisc disruption ([10]; 1 mM EDTA, pH 7.4, 280 nm): no disruption of nanodiscs | diameter of unbound toxin ([10]; pH 7.4, diameter = 2 RH): ~ 2.6 nm
